Measured values taken from the nanobody polyreactivity screen of Harvey et al. (2022).

Test: yeast display, Sf9 membrane polyspecificity reagent, FACS + sequencing; frameworks hold sequencing errors
In short: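 Galactose-induced (36–48 hours) yeast carrying a synthetic nanobody display library were exposed to 10% biotinylated, detergent-solubilized Sf9 membrane reagent at 4 °C for 1 hour. FACS followed streptavidin microbead enrichment, using low and high (top ~1%) gates for expression (anti-HA) and reagent binding (streptavidin). Colony PCR, MiSeq 2 × 250 sequencing and CDR-length filtering followed. Labels for polyreactivity reflect the gate of origin.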

| Sequence | polyreactivity (PSR sort gate) |
| --- | --- |
| QVQLVESGGGLVQAGGSLRLSCAASGNTFPLNAMGWYRQAPGKERELVAAISSSGRTYYADSVKGRFTISRDNAKNTVYLQMNSLKPEDTAVFYCNAKWRERGVRMDYWGQGTQVTVSS | high polyreactivity |
| QVQLVESGGGLVQAGGSLRLSCAASGNTFPVSYTMGWYRQAPGKEREFVAVITSGGGRTYADSVKGRFTISRDTAKNTVYLQMNSLKPEDTAVYYCAVRPRVSSWKFRSRRYGYWGQGTRVTVSS | high polyreactivity |
| QVQLVESGGGLVQAGGSLRLSCAASGNTFQRYTMGWYRQAPGKERELVAAINSSGGSTFYADSVKGRFTISRDNAKNTVYLQMNSLKPEDTAVYYCAASWHTPTVYDEYYYWGQGTQVTVSS | low polyreactivity |
| QVQLVESGGGLVQAGGSLRLSCAASGNTFQYYAMGWYRQAPGKEREFVAAISRRGGSTYYADSVKGRFTISRDNAKNTVYLQMNSLKPEDTAVYYCNKVIVLSQSSYSFHYAYDYWGQGTQVTVSS | high polyreactivity |
| QVQLVESGGGLVQAGGSLRLSCAASGNTFRDYAMGWYRQAPGKERELVAAITSSGARTYYADSVKGRFTISRDNAKNTVYLQMISLKPEDTAVYYCAADWSGYYTYDYWGQGTQVTVSS | low polyreactivity |
| QVQLVESGGGLVQAGGSLRLSCAASGNTFRHNTMGWYRQAPGKERELVSTNYADSVKGRFTISRDNAKNTVYLQMNSLKPEDTAVYYCNADGTFGYEYWGHGTQVTVSS | low polyreactivity |
| QVQLVESGGGLVQAGGSLRLSCAASGNTFRINAMGWYRQAPGKERELVAAISRSTGRTYYADSVKGRFTISRDNAKNTVYLQMNSLKPEDTAVYYCAAGYTGQEHDYWGLGTQVTVSS | high polyreactivity |
| QVQLVESGGGLVQAGGSLRLSCAASGNTFRPYAMGWYRQAPGKERELVARIRYGGGSTYYADSVKGRFTISRDNAKNTVYLQMNSLKPEDTAVYYCAVYRDQYRNFYYWGLGTQVTVSS | high polyreactivity |
| QVQLVESGGGLVQAGGSLRLSCAASGNTFRRYAMGWYRQAPGKERELVAAITGGTRTYYADSVKGRFTISRDNAKNTVYLQMISLKPEDTAVYYCAARLTSRSYRYDYWGQGTQVTVSS | high polyreactivity |
| QVQLVESGGGLVQAGGSLRLSCAASGNTFRWYAMGWYRQAPGKEREFVADITVRGGSTYYADSVKGRFTISRDNAKNTVYLQMNSLKPEDTAVYYCASYHYYTYDYWGQGTQVTVSS | low polyreactivity |
| QVQLVESGGGLVQAGGSLRLSCAASGNTFRWYAMGWYRQAPGKERELVAAITWSGGSTYYADSVKGRFTISRDNAKNPVYLQMNSLKPEDTAVYYCAARRWAGEYDYWGQGTQVTVSS | low polyreactivity |
| QVQLVESGGGLVQAGGSLRLSCAASGNTFSQYAMGWSRQAPGKERELVATISKSSGSTSYADSVKGRFTISRDNAKNTVYLQMNSLKPEDTAVYYCNADSSDVYHHLGVLFFSTWYDYWGQGTQVTVSS | low polyreactivity |
| QVQLVESGGGLVQAGGSLRLSCAASGNTFSVYTMGWYRQAPGKERELVAAITRGGDSTYYADSVKGRFTISRDNAKNTVYLQMNSLKPEDTAVYYCAADHDGPYAGYDSWGQGTQVTVSS | low polyreactivity |
| QVQLVESGGGLVQAGGSLRLSCAASGNTFSYNAMGWYRQAPGKEKELVAGITWSGGSTYYADSVKGRFTISRDNAKNTVYLQMNSLKPEDTAVYYCAKGYGSGVVRSRWSKYGYWGQGTQVTVSS | high polyreactivity |
| QVQLVESGGGLVQAGGSLRLSCAASGNTFTAYVMGWYRQAPGKERELVAGISGRGSSTYYADSVKGRFTISRDNAKNTVYLQMNSLKQEDTAVYYCAAVRTLRTWVYGRYDYWGQGTQVTVSS | high polyreactivity |
| QVQLVESGGGLVQAGGSLRLSCAASGNTFTKYAMGWYIQAPGKERELVAGITRGGSTNYADSVKGRFTISRDNAKNTVYLQMNSLKPEDTAVYYCNARPVYGSRFYSAVRMEYWGQGTPVTVSS | low polyreactivity |
| QVQLVESGGGLVQAGGSLRLSCAASGNTFTRNAMGWYRQAPGKERELVAAISYSGGSTYYADSVKGRFTISRDNAKNTVYLQMNSLKPEDTAVYYCATKYYDRFSPYRGDYWGQGTQVTVSS | low polyreactivity |
